# How the values were obtained:
# [1] = molecular target: human SNAP_GLP1R on CHO-K1 cells (human) (UniProt P43220)
# [2] = molecular target: SNAP_GLP1R on YFP-AD293 cells (human) (UniProt P43220)
# [3] = molecular target: SNAP_GLP1R on YFP-AD293 cells (human) (UniProt P43220); test: fluorescent ligand labelling of cells
# Chain of human SNAP_GLP1R on CHO-K1 cells (human) (P43220 24-463): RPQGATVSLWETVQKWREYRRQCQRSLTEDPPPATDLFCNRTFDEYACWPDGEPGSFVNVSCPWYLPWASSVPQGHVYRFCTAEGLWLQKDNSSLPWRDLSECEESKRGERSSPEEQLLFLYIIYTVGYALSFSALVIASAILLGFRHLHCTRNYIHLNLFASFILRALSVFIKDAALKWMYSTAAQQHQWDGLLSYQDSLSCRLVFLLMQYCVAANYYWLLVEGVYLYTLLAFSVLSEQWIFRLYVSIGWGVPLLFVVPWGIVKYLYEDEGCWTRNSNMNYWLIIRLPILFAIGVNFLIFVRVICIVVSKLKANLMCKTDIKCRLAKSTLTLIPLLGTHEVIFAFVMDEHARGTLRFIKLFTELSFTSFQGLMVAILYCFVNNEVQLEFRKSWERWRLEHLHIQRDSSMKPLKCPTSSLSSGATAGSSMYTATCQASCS
# Chain of SNAP_GLP1R on YFP-AD293 cells (human) (P43220 24-463): as above
Substance,block of GLP-1-induced cAMP production through GLP1R (cAMP-Glo) [1] [nM],cAMP production (cAMP-Glo) [2] [nM],cAMP production (cAMP-Glo) with the positive allosteric modulator BETP [2] [nM],cAMP production (cAMP-Glo) with the positive allosteric modulator BETP [1] [nM],concentration at maximum labeling [3] [nM]
Exendin4(9-39) (peptide),38.4,,,,
LUXendin555 (peptide),,130,28.4,,
LUXendin645 (peptide),73.1,,,9.3,100
S39C-Exendin4(9-39) (peptide),34.8,,,,

# — paper doi:10.1101/557132
